For this series, the target named is Flag-TSC2 (UniProt P49815).

Data on one substance can be found in US20180147232.

Sequence of Flag-TSC2 (P49815 whole entry): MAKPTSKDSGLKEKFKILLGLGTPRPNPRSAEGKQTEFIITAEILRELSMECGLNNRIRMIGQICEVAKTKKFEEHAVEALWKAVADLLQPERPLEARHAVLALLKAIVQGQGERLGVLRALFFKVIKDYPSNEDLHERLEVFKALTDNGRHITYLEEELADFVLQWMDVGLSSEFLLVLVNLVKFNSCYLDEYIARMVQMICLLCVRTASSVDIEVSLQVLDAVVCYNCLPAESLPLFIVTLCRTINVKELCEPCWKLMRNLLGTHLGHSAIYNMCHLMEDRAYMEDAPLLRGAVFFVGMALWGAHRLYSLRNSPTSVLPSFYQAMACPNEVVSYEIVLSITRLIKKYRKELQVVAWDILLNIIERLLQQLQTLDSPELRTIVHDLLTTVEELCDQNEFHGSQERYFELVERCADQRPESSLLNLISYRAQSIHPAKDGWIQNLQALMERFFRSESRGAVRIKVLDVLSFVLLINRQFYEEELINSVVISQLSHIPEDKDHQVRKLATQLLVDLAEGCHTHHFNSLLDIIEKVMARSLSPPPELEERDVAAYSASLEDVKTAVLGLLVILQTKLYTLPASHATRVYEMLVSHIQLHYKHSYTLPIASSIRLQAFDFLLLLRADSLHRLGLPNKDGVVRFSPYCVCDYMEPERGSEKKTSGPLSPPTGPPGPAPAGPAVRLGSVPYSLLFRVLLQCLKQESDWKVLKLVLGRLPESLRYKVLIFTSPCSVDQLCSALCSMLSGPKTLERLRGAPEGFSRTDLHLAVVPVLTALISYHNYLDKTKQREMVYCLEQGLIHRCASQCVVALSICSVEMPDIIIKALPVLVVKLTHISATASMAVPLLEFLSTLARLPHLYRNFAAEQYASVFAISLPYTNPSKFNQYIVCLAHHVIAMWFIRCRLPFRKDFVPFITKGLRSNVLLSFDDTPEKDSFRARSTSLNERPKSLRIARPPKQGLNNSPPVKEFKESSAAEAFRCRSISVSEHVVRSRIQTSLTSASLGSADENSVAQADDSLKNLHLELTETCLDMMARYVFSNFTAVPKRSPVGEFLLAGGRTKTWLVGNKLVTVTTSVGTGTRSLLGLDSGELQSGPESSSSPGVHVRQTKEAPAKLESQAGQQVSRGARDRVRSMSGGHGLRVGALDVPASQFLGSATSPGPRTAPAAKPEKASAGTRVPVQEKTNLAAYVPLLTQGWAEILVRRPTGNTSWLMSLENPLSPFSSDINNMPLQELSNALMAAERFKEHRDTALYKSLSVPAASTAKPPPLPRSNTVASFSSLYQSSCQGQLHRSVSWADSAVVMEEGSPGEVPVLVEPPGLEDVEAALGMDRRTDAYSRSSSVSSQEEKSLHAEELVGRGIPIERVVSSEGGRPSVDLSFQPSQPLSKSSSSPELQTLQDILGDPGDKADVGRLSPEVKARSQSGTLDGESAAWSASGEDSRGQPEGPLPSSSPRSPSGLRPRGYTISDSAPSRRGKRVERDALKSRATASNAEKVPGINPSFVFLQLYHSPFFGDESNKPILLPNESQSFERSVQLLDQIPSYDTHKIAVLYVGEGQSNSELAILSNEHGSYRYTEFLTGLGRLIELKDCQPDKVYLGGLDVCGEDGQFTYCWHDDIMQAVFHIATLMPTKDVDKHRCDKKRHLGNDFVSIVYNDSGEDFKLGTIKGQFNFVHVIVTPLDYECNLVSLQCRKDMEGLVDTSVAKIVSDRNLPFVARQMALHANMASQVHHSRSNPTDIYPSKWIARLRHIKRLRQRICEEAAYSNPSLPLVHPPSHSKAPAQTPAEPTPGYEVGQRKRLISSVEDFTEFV

Regarding HA-SGK1, the “phosphorylation of RXRXX(S/T) motifs on co-expression” value is recorded as “co-expression of SGK1 with TSC2 increased the phosphorylation of RXRXX(S/T) (SEQ ID NO: 1) motifs”.
